Source: patent publication US20210403595 (published 2021)
Where two headings read alike, the source gives them in different places.

Experiments:
[1] = target: human CD3 on Jurkat cells (human); test: FACS
[2] = target: human CD3 on Jurkat cells (human); test: FACS; remark: listed apart in the source
[3] = target: T1, cynomolgus CD3 on T cells (cynomolgus monkey); test: FACS
T1 chain: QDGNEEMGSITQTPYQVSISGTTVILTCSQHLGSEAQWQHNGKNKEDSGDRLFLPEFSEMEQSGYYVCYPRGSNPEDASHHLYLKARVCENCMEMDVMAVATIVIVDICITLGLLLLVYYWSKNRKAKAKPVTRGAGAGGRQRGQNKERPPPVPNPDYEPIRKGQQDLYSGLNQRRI

[4] = target: human CD3 epsilon/delta heterodimer, Fc-tagged (human); test: SPR, 37C
human PSMA on cells = human PSMA on cells (human); test: FACS, B16F10.9/PSMA
human PSMA on cells (human), sequence (A4UU12 whole entry): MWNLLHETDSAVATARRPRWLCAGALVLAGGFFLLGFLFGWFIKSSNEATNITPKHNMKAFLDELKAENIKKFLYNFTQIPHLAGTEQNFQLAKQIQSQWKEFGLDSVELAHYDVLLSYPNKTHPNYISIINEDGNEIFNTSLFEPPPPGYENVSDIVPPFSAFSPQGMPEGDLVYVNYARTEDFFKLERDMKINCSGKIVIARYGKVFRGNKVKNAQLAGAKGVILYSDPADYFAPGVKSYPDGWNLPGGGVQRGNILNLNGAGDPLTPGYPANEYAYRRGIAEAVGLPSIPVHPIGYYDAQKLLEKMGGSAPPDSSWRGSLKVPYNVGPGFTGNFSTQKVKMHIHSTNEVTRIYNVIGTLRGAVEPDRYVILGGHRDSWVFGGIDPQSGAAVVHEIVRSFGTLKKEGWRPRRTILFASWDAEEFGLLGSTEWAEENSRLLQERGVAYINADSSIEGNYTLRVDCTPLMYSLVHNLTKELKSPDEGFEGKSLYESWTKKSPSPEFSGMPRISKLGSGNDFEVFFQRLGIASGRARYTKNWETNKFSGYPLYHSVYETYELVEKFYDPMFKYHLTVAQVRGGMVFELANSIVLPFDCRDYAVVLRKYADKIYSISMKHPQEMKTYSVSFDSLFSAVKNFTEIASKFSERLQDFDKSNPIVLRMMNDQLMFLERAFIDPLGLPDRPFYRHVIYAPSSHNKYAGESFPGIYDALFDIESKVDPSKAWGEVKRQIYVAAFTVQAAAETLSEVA

human CD3 on Jurkat cells (human), sequence (chain, as listed by the source, chain 1 of 2): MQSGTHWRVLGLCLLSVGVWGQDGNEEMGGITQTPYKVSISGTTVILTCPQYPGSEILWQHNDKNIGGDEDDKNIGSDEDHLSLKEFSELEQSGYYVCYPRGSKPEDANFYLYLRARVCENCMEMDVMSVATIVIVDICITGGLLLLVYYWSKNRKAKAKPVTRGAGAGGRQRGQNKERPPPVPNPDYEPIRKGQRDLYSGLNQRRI
human CD3 on Jurkat cells (human), sequence (chain, as listed by the source, chain 2 of 2): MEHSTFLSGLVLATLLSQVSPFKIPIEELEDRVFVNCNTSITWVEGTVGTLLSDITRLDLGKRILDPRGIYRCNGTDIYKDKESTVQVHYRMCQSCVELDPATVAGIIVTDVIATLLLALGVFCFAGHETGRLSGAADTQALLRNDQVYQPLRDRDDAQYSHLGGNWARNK
human CD3 epsilon/delta heterodimer, Fc-tagged (human), sequence (chain, as listed by the source mutant, chain 1 of 2): as the sequence (chain, as listed by the source, chain 1 of 2) above
human CD3 epsilon/delta heterodimer, Fc-tagged (human), sequence (chain, as listed by the source mutant, chain 2 of 2): as the sequence (chain, as listed by the source, chain 2 of 2) above

B1: H1H5786B (antibody, V domains shown)
VH: QVQLVESGAEVKKPGASVKVSCKTSGYTFTGYYMHWIRQAPGQGLEWMGWINPKSGGTNYAQKFQGRVTMTRDTSISTAYMELSRLRSDDMAVYYCARMGDGAVFDFWGQGTLVTVSS
VL: AIQMTQSPSSLSASVGDRVTITCRASQRISSFLNWYQQKPGKAPKLLIYTASNLQNGVPSRFSGSGSGTDFTLTISSLQPEDFATYYCQQSYRTPLTFGGGTKVEIKR
B1 gave an EC50 [1] of 1.1 nM.

B2: BSPSMA/CD3-1900 CD3 arm (antibody, V domains shown)
VH: EVQLVESGGGLVQPGRSLRLSCAASGFTFDDYSMHWVRQAPGKGLEWVSGISWNSGSIGYADSVKGRFTISRDNAKNSLYLQMNSLRAEDTALYYCAKDGSGYGKFYHYGMDVWGQGTTVTVSS
VL: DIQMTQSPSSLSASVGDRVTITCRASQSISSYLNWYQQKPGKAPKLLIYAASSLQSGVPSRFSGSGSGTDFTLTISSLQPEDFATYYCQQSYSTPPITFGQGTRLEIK
For B2, the EC50 [2] was 60.7 nM, the binding result [3] was “no binding” and the Kd [4] was 115 nM.

B3: BSPSMA/CD3-900 CD3 arm (antibody, V domains shown)
VH: EVQLVESGGGLVQPGRSLRLSCAASGFTFDDYSMHWVRQAPGKGLEWVSGISWNSGSKGYADSVKGRFTISRDNAKNSLYLQMNSLRAEDTALYYCAKDGSGYGKFYHYGLDVWGQGTTVTVSS
VL: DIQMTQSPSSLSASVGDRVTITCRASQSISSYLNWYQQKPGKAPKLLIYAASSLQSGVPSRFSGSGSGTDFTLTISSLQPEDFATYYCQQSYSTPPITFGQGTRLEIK
In the case of B3, the EC50 [2] is reported as 274 nM, the binding result [3] is reported as “no binding” and the Kd [4] is reported as 113 nM.

B4: BSPSMA/CD3-2100 CD3 arm (antibody, V domains shown)
VH: EVQLVESGGGLVQPGRSLRLSCAASGFTFDDYSMHWVRQAPGKGLEWVSGISWNSGSKGYADSVKGRFTISRDNAKNSLYLQMNSLRAEDTALYYCAKDGSGYGKFYYYGMDVWGQGTTVTVSS
VL: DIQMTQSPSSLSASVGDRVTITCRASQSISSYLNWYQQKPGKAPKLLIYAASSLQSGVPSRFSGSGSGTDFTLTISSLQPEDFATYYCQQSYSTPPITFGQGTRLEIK
B4 was tested, and the EC50 [2] was 106 nM, the binding result [3] was “no binding” and the Kd [4] was 77.5 nM.

B5: BSPSMA/CD3-1500 CD3 arm (antibody, V domains shown)
VH: EVQLVESGGGLVQPGRSLRLSCAASGFTFDDYSMHWVRQAPGKGLEWVSGISWNSGSKGYADSVKGRFTISRDNAKNSLYLQMNSLRAEDTALYYCAKDGSGYGKFYYYGLDVWGQGTTVTVSS
VL: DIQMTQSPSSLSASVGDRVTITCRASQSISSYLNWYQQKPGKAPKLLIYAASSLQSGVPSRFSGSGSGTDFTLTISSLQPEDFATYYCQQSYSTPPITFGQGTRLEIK
For B5, the EC50 [2] was 93 nM, the binding result [3] was “no binding” and the Kd [4] was 82.9 nM.

B6: BSPSMA/CD3-1200 CD3 arm (antibody, V domains shown)
VH: EVQLVESGGGLVQPGRSLRLSCAASGFTFDDYSMHWVRQAPGKGLEWVSGISWNSGSIGYADSVKGRFTISRDNAKNSLYLQMNSLRAEDTALYYCAKDGSGYGKFYHYGLDVWGQGTTVTVSS
VL: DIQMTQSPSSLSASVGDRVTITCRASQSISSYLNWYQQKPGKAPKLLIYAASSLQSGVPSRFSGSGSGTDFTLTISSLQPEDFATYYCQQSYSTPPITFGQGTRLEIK
With B6 the EC50 [2] was 47.2 nM, the binding result [3] was “no binding” and the Kd [4] was 64.2 nM.

B7: BSPSMA/CD3-1000 CD3 arm (antibody, V domains shown)
VH: EVQLVESGGGLVQPGRSLRLSCAASGFTFDDYSMHWVRQAPGKGLEWVSGISWNSGSKGYADSVKGRFTISRDNAKNSLYLQMNSLRAEDTALYYCAKYGSGYGKFYYYGLDVWGQGTTVTVSS
VL: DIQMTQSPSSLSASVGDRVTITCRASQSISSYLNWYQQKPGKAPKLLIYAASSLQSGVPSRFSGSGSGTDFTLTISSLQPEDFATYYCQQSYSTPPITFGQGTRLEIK
For B7, the EC50 [2] was 277 nM, the binding result [3] was “no binding” and the Kd [4] was 185 nM.

B8: BSPSMA/CD3-1600 CD3 arm (antibody, V domains shown)
VH: EVQLVESGGGLVQPGRSLRLSCAASGFTFDDYSMHWVRQAPGKGLEWVSGISWNSGSKGYADSVKGRFTISRDNAKNSLYLQMNSLRAEDTALYYCAKDGSGYGKFYHYGMDVWGQGTTVTVSS
VL: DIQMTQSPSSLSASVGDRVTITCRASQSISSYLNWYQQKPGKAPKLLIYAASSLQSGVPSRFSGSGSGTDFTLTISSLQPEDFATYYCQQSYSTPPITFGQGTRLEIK
With B8 the EC50 [2] was 56.8 nM, the binding result [3] was “no binding” and the Kd [4] was 37.8 nM.

B9: BSPSMA/CD3-1400 PSMA arm (antibody, V domains shown)
VH: QVQLVESGGGVVQPGRSLRLSCAASGFTFSSYGMHWVRQAPGKGLEWVAVISYAGNNKYYADSVKGRFTVSRDNSKKTLYLQMNSLRSEDTAVYYCAKDSYYDFLTDPDVLDIWGQGTMVTVSS
VL: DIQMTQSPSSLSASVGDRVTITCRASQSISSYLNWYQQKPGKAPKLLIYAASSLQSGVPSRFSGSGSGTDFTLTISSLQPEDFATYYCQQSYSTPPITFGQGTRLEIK
Work on B9 yielded an EC50 (human PSMA on cells) of 1.3 nM.

B10: BSPSMA/CD3-1900 PSMA arm (antibody, V domains shown)
VH: QVQLVESGGGVVQPGRSLRLSCAASGFTFSSYGMHWVRQAPGKGLEWVAVISYAGNNKYYADSVKGRFTVSRDNSKKTLYLQMNSLRSEDTAVYYCAKDSYYDFLTDPDVLDIWGQGTMVTVSS
VL: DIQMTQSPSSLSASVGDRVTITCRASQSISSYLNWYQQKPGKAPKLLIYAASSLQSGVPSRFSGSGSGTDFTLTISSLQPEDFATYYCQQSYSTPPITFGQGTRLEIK
For B10, the EC50 (human PSMA on cells) was 1.35 nM.

B11: BSPSMA/CD3-900 PSMA arm (antibody, V domains shown)
VH: QVQLVESGGGVVQPGRSLRLSCAASGFTFSSYGMHWVRQAPGKGLEWVAVISYAGNNKYYADSVKGRFTVSRDNSKKTLYLQMNSLRSEDTAVYYCAKDSYYDFLTDPDVLDIWGQGTMVTVSS
VL: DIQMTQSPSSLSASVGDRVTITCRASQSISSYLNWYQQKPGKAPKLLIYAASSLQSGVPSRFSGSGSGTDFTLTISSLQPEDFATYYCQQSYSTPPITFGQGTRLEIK
For B11, the EC50 (human PSMA on cells) was 1.43 nM.

B12: BSPSMA/CD3-400 PSMA arm (antibody, V domains shown)
VH: QVQLVESGGGVVQPGRSLRLSCAASGFTFSSYGMHWVRQAPGKGLEWVAVISYAGNNKYYADSVKGRFTVSRDNSKKTLYLQMNSLRSEDTAVYYCAKDSYYDFLTDPDVLDIWGQGTMVTVSS
VL: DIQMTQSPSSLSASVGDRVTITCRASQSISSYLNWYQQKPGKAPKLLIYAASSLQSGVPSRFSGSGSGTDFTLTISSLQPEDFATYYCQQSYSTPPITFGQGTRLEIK
For B12, the EC50 (human PSMA on cells) was 1.72 nM.

B13: BSPSMA/CD3-005 PSMA arm (antibody, V domains shown)
VH: QVQLVESGGGVVQPGRSLRLSCAASGFTFSSYGMHWVRQAPGKGLEWVAVISYAGNNKYYADSVKGRFTVSRDNSKKTLYLQMNSLRSEDTAVYYCAKDSYYDFLTDPDVLDIWGQGTMVTVSS
VL: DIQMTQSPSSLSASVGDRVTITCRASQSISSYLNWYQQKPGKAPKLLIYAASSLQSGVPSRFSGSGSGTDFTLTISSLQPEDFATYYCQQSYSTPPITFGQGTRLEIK
Work on B13 yielded an EC50 (human PSMA on cells) of 2.09 nM.

B14: BSPSMA/CD3-003 PSMA arm (antibody, V domains shown)
VH: QVQLVESGGGVVQPGRSLRLSCAASGFTFSSYGMHWVRQAPGKGLEWVAVISYAGNNKYYADSVKGRFTVSRDNSKKTLYLQMNSLRSEDTAVYYCAKDSYYDFLTDPDVLDIWGQGTMVTVSS
VL: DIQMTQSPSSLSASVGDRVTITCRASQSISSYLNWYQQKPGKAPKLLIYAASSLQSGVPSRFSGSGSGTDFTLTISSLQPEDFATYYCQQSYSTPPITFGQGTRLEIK
Work on B14 yielded an EC50 (human PSMA on cells) of 2.26 nM.

B15: BSPSMA/CD3-1600 PSMA arm (antibody, V domains shown)
VH: QVQLVESGGGVVQPGRSLRLSCAASGFTFSSYGMHWVRQAPGKGLEWVAVISYAGNNKYYADSVKGRFTVSRDNSKKTLYLQMNSLRSEDTAVYYCAKDSYYDFLTDPDVLDIWGQGTMVTVSS
VL: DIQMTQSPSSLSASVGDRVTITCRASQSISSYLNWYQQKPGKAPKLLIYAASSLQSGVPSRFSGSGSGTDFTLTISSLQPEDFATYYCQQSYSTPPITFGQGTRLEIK
Binder B15 has an EC50 (human PSMA on cells) of 1.03 nM.

B16: BSPSMA/CD3-004 PSMA arm (antibody, V domains shown)
VH: QVQLVESGGGVVQPGRSLRLSCAASGFTFSSYGMHWVRQAPGKGLEWVAVISYAGNNKYYADSVKGRFTVSRDNSKKTLYLQMNSLRSEDTAVYYCAKDSYYDFLTDPDVLDIWGQGTMVTVSS
VL: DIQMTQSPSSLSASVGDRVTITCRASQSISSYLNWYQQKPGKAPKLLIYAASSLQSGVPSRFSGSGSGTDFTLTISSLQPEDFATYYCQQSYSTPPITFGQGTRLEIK
Binder B16 has an EC50 (human PSMA on cells) of 1.31 nM.

B17: BSPSMA/CD3-1800 PSMA arm (antibody, V domains shown)
VH: QVQLVESGGGVVQPGRSLRLSCAASGFTFSSYGMHWVRQAPGKGLEWVAVISYAGNNKYYADSVKGRFTVSRDNSKKTLYLQMNSLRSEDTAVYYCAKDSYYDFLTDPDVLDIWGQGTMVTVSS
VL: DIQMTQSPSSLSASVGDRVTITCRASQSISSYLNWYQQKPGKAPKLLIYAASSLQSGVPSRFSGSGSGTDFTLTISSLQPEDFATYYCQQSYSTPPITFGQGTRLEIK
B17 showed an EC50 (human PSMA on cells) of 2.16 nM.

B18: BSPSMA/CD3-2100 PSMA arm (antibody, V domains shown)
VH: QVQLVESGGGVVQPGRSLRLSCAASGFTFSSYGMHWVRQAPGKGLEWVAVISYAGNNKYYADSVKGRFTVSRDNSKKTLYLQMNSLRSEDTAVYYCAKDSYYDFLTDPDVLDIWGQGTMVTVSS
VL: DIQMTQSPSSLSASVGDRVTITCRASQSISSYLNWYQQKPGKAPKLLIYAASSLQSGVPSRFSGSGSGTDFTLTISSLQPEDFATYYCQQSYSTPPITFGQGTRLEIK
B18 was tested, and the EC50 (human PSMA on cells) was 1.14 nM.

B19: BSPSMA/CD3-200 PSMA arm (antibody, V domains shown)
VH: QVQLVESGGGVVQPGRSLRLSCAASGFTFSSYGMHWVRQAPGKGLEWVAVISYAGNNKYYADSVKGRFTVSRDNSKKTLYLQMNSLRSEDTAVYYCAKDSYYDFLTDPDVLDIWGQGTMVTVSS
VL: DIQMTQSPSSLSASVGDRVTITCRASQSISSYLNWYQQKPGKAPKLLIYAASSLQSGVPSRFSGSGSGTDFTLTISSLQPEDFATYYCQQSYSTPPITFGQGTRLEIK
Work on B19 yielded an EC50 (human PSMA on cells) of 1.88 nM.

B20: BSPSMA/CD3-1000 PSMA arm (antibody, V domains shown)
VH: QVQLVESGGGVVQPGRSLRLSCAASGFTFSSYGMHWVRQAPGKGLEWVAVISYAGNNKYYADSVKGRFTVSRDNSKKTLYLQMNSLRSEDTAVYYCAKDSYYDFLTDPDVLDIWGQGTMVTVSS
VL: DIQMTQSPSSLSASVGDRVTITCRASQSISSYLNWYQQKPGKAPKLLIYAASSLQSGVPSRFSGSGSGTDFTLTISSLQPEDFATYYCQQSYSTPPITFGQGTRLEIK
Binder B20 has an EC50 (human PSMA on cells) of 1.19 nM.

B21: BSPSMA/CD3-1200 PSMA arm (antibody, V domains shown)
VH: QVQLVESGGGVVQPGRSLRLSCAASGFTFSSYGMHWVRQAPGKGLEWVAVISYAGNNKYYADSVKGRFTVSRDNSKKTLYLQMNSLRSEDTAVYYCAKDSYYDFLTDPDVLDIWGQGTMVTVSS
VL: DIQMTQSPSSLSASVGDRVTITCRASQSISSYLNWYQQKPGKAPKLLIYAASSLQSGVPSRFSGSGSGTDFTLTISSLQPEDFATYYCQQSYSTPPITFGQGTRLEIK
B21 was tested, and the EC50 (human PSMA on cells) was 1.16 nM.

B22: BSPSMA/CD3-1500 PSMA arm (antibody, V domains shown)
VH: QVQLVESGGGVVQPGRSLRLSCAASGFTFSSYGMHWVRQAPGKGLEWVAVISYAGNNKYYADSVKGRFTVSRDNSKKTLYLQMNSLRSEDTAVYYCAKDSYYDFLTDPDVLDIWGQGTMVTVSS
VL: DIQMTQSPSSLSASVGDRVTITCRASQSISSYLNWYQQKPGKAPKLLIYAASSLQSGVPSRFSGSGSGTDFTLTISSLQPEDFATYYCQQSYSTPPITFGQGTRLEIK
For B22, the EC50 (human PSMA on cells) was 1.21 nM.

B23: BSPSMA/CD3-800 PSMA arm (antibody, V domains shown)
VH: QVQLVESGGGVVQPGRSLRLSCAASGFTFSSYGMHWVRQAPGKGLEWVAVISYAGNNKYYADSVKGRFTVSRDNSKKTLYLQMNSLRSEDTAVYYCAKDSYYDFLTDPDVLDIWGQGTMVTVSS
VL: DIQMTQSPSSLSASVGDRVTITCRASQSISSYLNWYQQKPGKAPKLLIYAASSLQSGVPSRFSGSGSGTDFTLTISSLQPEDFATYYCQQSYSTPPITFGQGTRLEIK
For B23, the EC50 (human PSMA on cells) was 1.31 nM.

B24: BSPSMA/CD3-1300 PSMA arm (antibody, V domains shown)
VH: QVQLVESGGGVVQPGRSLRLSCAASGFTFSSYGMHWVRQAPGKGLEWVAVISYAGNNKYYADSVKGRFTVSRDNSKKTLYLQMNSLRSEDTAVYYCAKDSYYDFLTDPDVLDIWGQGTMVTVSS
VL: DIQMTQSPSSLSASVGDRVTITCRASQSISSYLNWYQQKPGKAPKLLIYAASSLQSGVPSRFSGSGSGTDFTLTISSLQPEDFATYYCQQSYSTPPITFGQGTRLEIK
With B24 the EC50 (human PSMA on cells) was 1.25 nM.

B25: BSPSMA/CD3-1100 PSMA arm (antibody, V domains shown)
VH: QVQLVESGGGVVQPGRSLRLSCAASGFTFSSYGMHWVRQAPGKGLEWVAVISYAGNNKYYADSVKGRFTVSRDNSKKTLYLQMNSLRSEDTAVYYCAKDSYYDFLTDPDVLDIWGQGTMVTVSS
VL: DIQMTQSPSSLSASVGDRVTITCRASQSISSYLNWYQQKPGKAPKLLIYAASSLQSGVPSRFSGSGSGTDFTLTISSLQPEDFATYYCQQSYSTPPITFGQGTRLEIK
In the case of B25, the EC50 (human PSMA on cells) is reported as 1.03 nM.

B26: BSPSMA/CD3-1700 PSMA arm (antibody, V domains shown)
VH: QVQLVESGGGVVQPGRSLRLSCAASGFTFSSYGMHWVRQAPGKGLEWVAVISYAGNNKYYADSVKGRFTVSRDNSKKTLYLQMNSLRSEDTAVYYCAKDSYYDFLTDPDVLDIWGQGTMVTVSS
VL: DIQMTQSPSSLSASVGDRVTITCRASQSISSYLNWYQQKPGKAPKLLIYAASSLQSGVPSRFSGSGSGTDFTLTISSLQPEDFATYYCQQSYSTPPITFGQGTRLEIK
In the case of B26, the EC50 (human PSMA on cells) is reported as 1.34 nM.

B27: BSPSMA/CD3-300 PSMA arm (antibody, V domains shown)
VH: QVQLVESGGGVVQPGRSLRLSCAASGFTFSSYGMHWVRQAPGKGLEWVAVISYAGNNKYYADSVKGRFTVSRDNSKKTLYLQMNSLRSEDTAVYYCAKDSYYDFLTDPDVLDIWGQGTMVTVSS
VL: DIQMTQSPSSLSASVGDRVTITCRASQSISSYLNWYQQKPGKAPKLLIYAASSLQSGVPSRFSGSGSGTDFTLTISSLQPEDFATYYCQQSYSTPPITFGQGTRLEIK
With B27 the EC50 (human PSMA on cells) was 1.9 nM.

B28: BSPSMA/CD3-001 CD3 arm (antibody, V domains shown)
VH: EVQLVESGGGLVQPGRSLRLSCVASGFTFADFTMHWVRQAPGKGLEWVSGISWNSNSIDYADSVKGRFTISRDNAKKSLFLQMSSLRAEDTALYYCVKDRSGYSRFYYGMDVWGQGTTVTVSS
VL: EIVMTQSPATLSVSPGERAILSCRASQNINSNLAWYQQKPGQAPRLLIYGASTRATGVPARFSGSGSGTEFTLTIRSLQSEDFAVYYCQQYYNWPITFGHGTRLEIK
Work on B28 yielded an EC50 [2] of 39.1 nM.
